Entries after “also recorded” stand apart in the source; their conditions may differ.

The source of these data is patent US20100003264A1, “Reduction of Ophthalmalogic Neovascularization” (WASHINGTON UNIVERSITY, priority 2005, published 2010).

The test system of the experiment is choroidal neovascularization. The experiment in a line: laser-induced choroidal neovascularization in mice, volume of the neovascular complex. The format is in vivo. The following applies: IL-10 knockout mice, IL-10 intravitreally on day of laser or three days after laser. As for the experimental part:
Volume of the neovascular complex was examined in IL-10 knockout mice. Knockout mice were purchased commercially (NCI, Frederick, Md.). All work was carried out per the ARVO guidelines for animal use in research. Rupture of Bruch's membrane with laser was used to initiate chorioretinal neovascularization in 5-7 week old mice as described in Nambu et al. ((2003) Invest Ophthalmol Vis Sci 44: 3650). Seven days after laser, the mice were anesthetized and perfused intraventricularly with fluorescein-labeled dextran. The mice were euthanized with CO2 inhalation and the eyes harvested for tissue processing. A dissecting microscope was used to remove the cornea and lens and gently separate the retina from the underlying choroid and sclera. Microscissors were used to make four radial incisions in the sclerochoroidal ‘eyecup’ in order to prepare choroidal flat mounts on glass slides. The tissues were incubated in 4% paraformaldehyde for 45 minutes and washed three times with 3% bovine serum albumin. […] The choroidal flat mounts were analyzed for presence of CNV by confocal microscopy. Extent of choroidal neovascularization was quantified by Metamorph™ imaging software. […]
Macrophages were used to proactively treat the formation of blood vessels in the eye. […] Choroidal neovascularization was analyzed on day 7. […]

B1: IL-10: cytokine produced by activated macrophages and some helper T cells; injected exogenously into eyes of IL-10 knockout mice (protein, UniProt P18893 19-178, looked up)
Interleukin-10: SRGQYSREDNNCTHFPVGQSHMLLELRTAFSQVKTFFQTKDQLDNILLTDSLMQDFKGYLGCQALSEMIQFYLVEVMPQAEKHGPEIKEHLNSLGEKLKTLRMRLRRCHRFLPCENKSKAVEQVKSDFNKLQDQGVYKAMNEFDIFINCIEAYMMIKMKS
As for B1, the “choroidal neovascularization (volume of the neovascular complex)” value was “reversed the inhibition choroidal neovascularization; also recorded: increased new vessel formation”. Besides, the “choroidal neovascularization (volume of the neovascular complex)” value (listed as Exogenous IL-10) was “reversed the inhibition choroidal neovascularization”.
